According to US20150071923A1 (published 2015):
Where two headings read alike, the source gives them in different places.

B1: huY104D-MMAE antibody-drug conjugate (antibody, human IgG1, kappa)
heavy: not shown
light: AIQLTQSPSSLSASVGDRVTITCRASQSIGTNIHWYLQKPGQSPQLLIYYASESISGIPDRFSGSGSGTDFTLTISRLEPEDFAVYYCQQNNNWPTTFGQGTKVEIKRTVAAPSVFIFPPSDEQLKSGTASVVCLLNNFYPREAKVQWKVDNALQSGNSQESVTEQDSKDSTYSLSSTLTLSKADYEKHKVYACEVTHQGLSSPVTKSFNRGEC
modifications: MMAE conjugated as described in Example 18 (maleimidocaproyl-vcPAB linker on reduced disulfide cysteines)
B2: huY104E-MMAE antibody-drug conjugate (antibody, human IgG1, kappa)
heavy: not shown
light: B1 light
modifications: MMAE conjugated as described in Example 18 (maleimidocaproyl-vcPAB linker on reduced disulfide cysteines)
B3: humanized Y104D/Q111P cetuximab mutant antibody (DP-h7) (antibody, human IgG1, kappa)
heavy: not shown
light: B1 light
notes: Full-length IgG; also called DP-h07
B4: humanized Y104D anti-EGFR antibody (D-h) (antibody, human IgG1, kappa)
heavy: not shown
light: B1 light
notes: Full-length IgG; also called huY104D; D-h07
B5: humanized Y104E anti-EGFR antibody (E-h) (antibody, human IgG1, kappa)
heavy: not shown
light: B1 light
notes: Full-length IgG; also called huY104E; E-h07
B6: humanized Y104E/Q111P anti-EGFR antibody (EP-h) (antibody, human IgG1, kappa)
heavy: not shown
light: B1 light
notes: Full-length IgG; also called EP-h07
B7: flag-tagged humanized T030F/Y104D/Q111P mutant anti-EGFR antibody (FDP-h3) (antibody, human IgG1, kappa, V domains shown)
VH: EVQLVQSGAEVKKPGATVKISCKVSGFSLFNYGVHWVRQATGQGLEWMGVIWSGGNTDYNTPFTSRFTISRDDSKNTAYLQMNSLKTEDTAVYYCARALTYYDDEFAYWGPGTLVTVSS
VL: AIQLTQSPSSLSASVGDRVTITCRASQSIGTNIHWYLQKPGQSPQLLIYYASESISGIPDRFSGSGSGTDFTLTISRLEPEDFAVYYCQQNNNWPTTFGQGTKVEIKR
notes: also called FDP-h03

Experiments:
[1] = target: human epidermal growth factor receptor (EGFR) on cells and tissues (human, UniProt P00533 25-1210); test: cell-based or functional assay
[2] = target: T1, His-tagged soluble extracellular domain of EGFR (sEGFR-H6; Sino Biologics, Cat #10001-H08H) (human, UniProt P00533 25-645); test: pH-sensitive ELISA on coated sEGFR-H6
T1 construct: Bought protein; also called EGFR sECD; soluble extracellular domain of EGF receptor

[3] = target: T1, His-tagged soluble extracellular domain …; test: pH-sensitive ELISA, transfected supernatant adjusted to 1 ng/mL
[4] = target: T1, His-tagged soluble extracellular domain …; test: pH-sensitive ELISA, transfected supernatant adjusted to 2 ng/mL
[5] = target: T1, His-tagged soluble extracellular domain …; test: pH-sensitive ELISA, transfected supernatant adjusted to 4 ng/mL
[6] = target: T1, His-tagged soluble extracellular domain …; test: ELISA on coated sEGFR-H6; pH 7.4, 1 mM lactic acid, 25% human serum
[7] = target: T1, His-tagged soluble extracellular domain …; test: ELISA on coated sEGFR-H6; pH 6.5, 16.7 mM lactic acid, 25% human serum
[8] = target: T1, His-tagged soluble extracellular domain …; test: ELISA on coated sEGFR-H6; pH 6.0, 16.7 mM lactic acid, 25% human serum
[9] = target: T1, His-tagged soluble extracellular domain …; test: pH-sensitive ELISA on coated sEGFR-H6; remark: listed apart in the source
[10] = target: T1, His-tagged soluble extracellular domain …; test: ELISA on coated sEGFR-H6; pH 7.4, 1 mM lactic acid, 25% human serum; remark: listed apart in the source
[11] = target: T1, His-tagged soluble extracellular domain …; test: ELISA on coated sEGFR-H6; pH 6.5, 16.7 mM lactic acid, 25% human serum; remark: listed apart in the source
[12] = target: T1, His-tagged soluble extracellular domain …; test: ELISA on coated sEGFR-H6; pH 6.0, 16.7 mM lactic acid, 25% human serum; remark: listed apart in the source
[13] = target: T1, His-tagged soluble extracellular domain …; test: pH-sensitive ELISA on coated sEGFR-H6; remark: listed apart in the source
[14] = target: T1, His-tagged soluble extracellular domain …; test: ELISA on coated sEGFR-H6; pH 7.4, 1 mM lactic acid, 25% human serum; remark: listed apart in the source
[15] = target: T1, His-tagged soluble extracellular domain …; test: ELISA on coated sEGFR-H6; pH 6.5, 16.7 mM lactic acid, 25% human serum; remark: listed apart in the source
[16] = target: T1, His-tagged soluble extracellular domain …; test: ELISA on coated sEGFR-H6; pH 6.0, 16.7 mM lactic acid, 25% human serum; remark: listed apart in the source

ratio of binding activity pH 6.0/7.4 (inverse EC50) [2]	ratio of binding activity pH 6.5/7.4 (inverse EC50) [2]	D (maximum) of 4-parameter fit [6] [OD450]	EC50 [6] [ng/mL]	D (maximum) of 4-parameter fit [7] [OD450]	EC50 [7] [ng/mL]	D (maximum) of 4-parameter fit [8] [OD450]	EC50 [8] [ng/mL]	ratio of binding activity pH 6.0/7.4 (inverse EC50) [9]	ratio of binding activity pH 6.5/7.4 (inverse EC50) [9]	D (maximum) of 4-parameter fit [10] [OD450]	EC50 [10] [ng/mL]	D (maximum) of 4-parameter fit [11] [OD450]	EC50 [11] [ng/mL]	D (maximum) of 4-parameter fit [12] [OD450]	EC50 [12] [ng/mL]	other results	Binder
																IC50 for cell growth inhibition of keratinocytes at pH 7.4 [1]: ~17 nM; cell growth inhibition of HT29 cells at pH 6.8; concentration for about 50% inhibition [1]: ~22 nM; cell growth inhibition of HT29 cells at pH 6.8; maximum concentration tested [1]: ~80%	B1
																IC50 for cell growth inhibition of keratinocytes at pH 7.4 [1]: ~5.4 nM; cell growth inhibition of HT29 cells at pH 6.8; concentration for about 50% inhibition [1]: ~22 nM; cell growth inhibition of HT29 cells at pH 6.8; maximum concentration tested [1]: ~80%	B2
8.1	4.86	3.14	33.6	3.83	6.91	3.83	4.15									pH 6.0/pH 7.4 OD ratio [3]: 17.4; pH 6.0/pH 7.4 OD ratio [4]: 7.21; pH 6.0/pH 7.4 OD ratio [5]: 11.3	B3
6.2	3.99	3.45	30.2	3.84	7.57	3.89	4.87	8.33	4.44	2.03	56.4	3.82	12.7	3.88	6.77		B4
14.5	7.85	3.23	46.1	3.85	5.87	3.92	3.18	12.3	6.04	1.44	59.3	3.94	9.82	3.87	4.82		B5
17.8	11	2.91	69.8	3.89	6.37	3.92	3.92	48.8	17.3	1.83	209	3.93	12.1	3.91	4.28		B6
																ratio of binding activity pH 6.0/7.4 (inverse EC50) [13]: 7.53; ratio of binding activity pH 6.5/7.4 (inverse EC50) [13]: 6.69; D (maximum) of 4-parameter fit [14]: 3.65 OD450; EC50 [14]: 32.6 ng/mL; D (maximum) of 4-parameter fit [15]: 3.76 OD450; EC50 [15]: 4.87 ng/mL; D (maximum) of 4-parameter fit [16]: 3.79 OD450; EC50 [16]: 4.33 ng/mL	B7
